Measured values from FireProtDB (doi:10.1016/j.csbj.2015.03.010).

Details: Aspergillus aculeatus; pH 4.5; Thermal; DSC; sodium acetate buffer 50 mM; transition: 2; reversible: no; whole UniProt chain shown

B1: Arabinogalactan endo-beta-1,4-galactanase wild type, P48842 (protein)
chain: MFASLLLAALPLLTHAALTYRGADISSLLLLEDEGYSYKNLNGQTQALETILADAGINSIRQRVWVNPSDGSYDLDYNLELAKRVKAAGMSLYLDLHLSDTWADPSDQTTPSGWSTTDLGTLKWQLYNYTLEVCNTFAENDIDIEIISIGNEIRAGLLWPLGETSSYSNIGALLHSGAWGVKDSNLATTPKIMIHLDDGWSWDQQNYFYETVLATGELLSTDFDYFGVSYYPFYSASATLASLKTSLANLQSTYDKPVVVVETNWPVSCPNPAYAFPSDLSSIPFSVAGQQEFLEKLAAVVEATTDGLGVYYWEPAWIGNAGLGSSCADNLMVDYTTDEVYESIETLGEL
With B1 the Tm was 60.9 °C.
